Source: patent US20250223280A1
Bridges are numbered along the chain shown (N, C = ends). [ ]: non-standard residue; d: D form. Pro(4S-NH2) = N[C@@H]1CN[C@H](C(=O)O)C1

B1: Compound 91 (peptide)
peptide: PDCAWHLGELVWCTP
modifications: not fully specified; residue 1 = (2S,4R)-4-aminoproline; residue 15 = D-Pro; backbone cyclised head to tail; disulfide Cys3-Cys13; 4-amino group of residue 1 acylated with the linker to the ASGPR ligand
B2: Intermediate 12 (peptide)
peptide: cyclo([Pro(4S-NH2)]ACAWHLGELVWCT[dP])
modifications: disulfide 3-13
SMILES: CC(C)C[C@@H]1NC(=O)[C@H](Cc2c[nH]cn2)NC(=O)[C@H](Cc2c[nH]c3ccccc23)NC(=O)[C@H](C)NC(=O)[C@@H]2CSSC[C@H](NC(=O)[C@H](Cc3c[nH]c4ccccc34)NC(=O)[C@H](C(C)C)NC(=O)[C@H](CC(C)C)NC(=O)[C@H](CCC(=O)O)NC(=O)CNC1=O)C(=O)N[C@@H]([C@@H](C)O)C(=O)N1CCC[C@@H]1C(=O)N1C[C@@H](N)C[C@H]1C(=O)N[C@@H](C)C(=O)N2
B3: Intermediate 31 (peptide)
peptide: cyclo(PD[(S)‑2‑aminohex‑5‑enoic acid]AWHLGELVW[(S)‑2‑aminopent‑4‑enoic acid]T[dP])
modifications: staple 3-13
B4: Compound 92 (peptide)
peptide: cyclo(PDCAWHLGELVWCT[dP])
modifications: disulfide 3-13; not fully specified (residue 1); also: linker and ASGPR ligand(s) not given here
B5: Intermediate 4 (peptide)
peptide: PDCAWHLGELVWCTP
modifications: residue 1 = (2S,4S)-4-aminoproline; residue 15 = D-Pro; backbone cyclised head to tail; disulfide Cys3-Cys13; 4-amino group of residue 1 acylated with PEG4-propanoyl capped by hex-5-ynamide
B6: Intermediate 30 (peptide)
peptide: cyclo(PDCAWHLGELVWCT[dP])
modifications: disulfide 3-13; not fully specified (residue 1)
B7: Intermediate 14 (peptide)
peptide: cyclo([Pro(4S-NH2)]DCSWHLGELVWCT[dP])
modifications: disulfide 3-13
SMILES: CC(C)C[C@@H]1NC(=O)[C@H](Cc2c[nH]cn2)NC(=O)[C@H](Cc2c[nH]c3ccccc23)NC(=O)[C@H](CO)NC(=O)[C@@H]2CSSC[C@H](NC(=O)[C@H](Cc3c[nH]c4ccccc34)NC(=O)[C@H](C(C)C)NC(=O)[C@H](CC(C)C)NC(=O)[C@H](CCC(=O)O)NC(=O)CNC1=O)C(=O)N[C@@H]([C@@H](C)O)C(=O)N1CCC[C@@H]1C(=O)N1C[C@@H](N)C[C@H]1C(=O)N[C@@H](CC(=O)O)C(=O)N2
B8: Compound 69 (peptide)
peptide: cyclo(PDCAWHLGELVWCT[dP])
modifications: disulfide 3-13; not fully specified (residue 1); also: conjugate from starting material A141
B9: Intermediate 8 (peptide)
peptide: PDCAWHLGELVWCTP
modifications: residue 1 = (2S,4S)-4-aminoproline; residue 15 = D-Pro; backbone cyclised head to tail; disulfide Cys3-Cys13; 4-amino group of residue 1 acylated (linker only in a drawing; the mass fits hex-5-ynoyl)
B10: Compound 65 (peptide)
peptide: cyclo(PDCAWHLGELVWCT[dP])
modifications: disulfide 3-13; not fully specified (residue 1); also: conjugate from starting material A137, ligand number not given here
B11: Compound 67 (peptide)
peptide: cyclo(PDCAWHLGELVWCT[dP])
modifications: disulfide 3-13; not fully specified (residue 1); also: conjugate from starting material A139
B12: Compound 63 (peptide)
peptide: cyclo(PDCAWHLGELVWCT[dP])
modifications: disulfide 3-13; not fully specified (residue 1); also: conjugate from starting material A40
B13: Compound 62 (peptide)
peptide: cyclo(PDCAWHLGELVWCT[dP])
modifications: disulfide 3-13; not fully specified (residue 1); also: conjugate from acid A32
B14: Compound 64 (peptide)
peptide: cyclo(PDCAWHLGELVWCT[dP])
modifications: disulfide 3-13; not fully specified (residue 1); also: conjugate from starting material A125
B15: Compound 68 (peptide)
peptide: cyclo(PDCAWHLGELVWCT[dP])
modifications: disulfide 3-13; not fully specified (residue 1); also: 4-amino of residue 1 acylated with 4-(4-((4-(sugar-methyl)piperazin-1-yl)methyl)piperidin-1-yl)benzoic acid linker to ASGPR ligand (A140), one 6-(trifluoromethyl)pyrazin-2-ylamino sugar
B16: Compound 51 (peptide)
peptide: cyclo(PDCAWHLGELVWCT[dP])
modifications: disulfide 3-13; not fully specified (residue 1); also: conjugate: hex-5-ynoyl peptide (Intermediate 48) clicked to one 6-(trifluoromethyl)pyrazin-2-ylamino sugar azide
B17: Compound 94 (peptide)
peptide: cyclo(PDCAWHLGELVWCT[dP])
modifications: disulfide 3-13; not fully specified (residue 1); also: 4-amino group of residue 1 acylated with linker to ASGPR ligands
B18: Compound 80 (peptide)
peptide: PDCAWHLGELVWCTP
modifications: not fully specified; residue 1 = (2S,4S)-4-aminoproline; residue 15 = D-Pro; backbone cyclised head to tail; disulfide Cys3-Cys13; 4-amino group of residue 1 acylated with the butanoyl-triazole linker to the ASGPR ligand
B19: Compound 85 (peptide)
peptide: PDCAWHLGELVWCTP
modifications: residue 1 = (2S,4S)-4-aminoproline; residue 15 = D-Pro; backbone cyclised head to tail; disulfide Cys3-Cys13; 4-amino group of residue 1 acylated with the linker to the sugar ligands
B20: Compound 66 (peptide)
peptide: cyclo(PDCAWHLGELVWCT[dP])
modifications: disulfide 3-13; not fully specified (residue 1); also: conjugate from starting material A138
B21: Compound 61 (peptide)
peptide: cyclo(PDCAWHLGELVWCT[dP])
modifications: disulfide 3-13; not fully specified (residue 1); also: conjugate: Intermediate 11 acylated with phenoxyacetic acid TFP ester carrying one 6-(trifluoromethyl)pyrazin-2-ylamino sugar
B22: Compound 95 (peptide)
peptide: cyclo(PDCAWHLGELVWCT[dP])
modifications: disulfide 3-13; not fully specified (residue 1); also: 4-amino group of residue 1 acylated with linker to ASGPR ligands
B23: Compound 86 (peptide)
peptide: PDCAWHLGELVWCTP
modifications: residue 1 = (2S,4S)-4-aminoproline; residue 15 = D-Pro; backbone cyclised head to tail; disulfide Cys3-Cys13; 4-amino group of residue 1 acylated with the linker to the sugar ligands
B24: Compound 72 (peptide)
peptide: cyclo(PDCAWHLGELVWCT[dP])
modifications: disulfide 3-13; not fully specified (residue 1); also: conjugate from starting material A144
B25: Intermediate 13 (peptide)
peptide: cyclo([Pro(4S-NH2)]NCAWHLGELVWCT[dP])
modifications: disulfide 3-13
SMILES: CC(C)C[C@@H]1NC(=O)[C@H](Cc2c[nH]cn2)NC(=O)[C@H](Cc2c[nH]c3ccccc23)NC(=O)[C@H](C)NC(=O)[C@@H]2CSSC[C@H](NC(=O)[C@H](Cc3c[nH]c4ccccc34)NC(=O)[C@H](C(C)C)NC(=O)[C@H](CC(C)C)NC(=O)[C@H](CCC(=O)O)NC(=O)CNC1=O)C(=O)N[C@@H]([C@@H](C)O)C(=O)N1CCC[C@@H]1C(=O)N1C[C@@H](N)C[C@H]1C(=O)N[C@@H](CC(N)=O)C(=O)N2
B26: Compound 53 (peptide)
peptide: cyclo(PDCAWHLGELVWCT[dP])
modifications: disulfide 3-13; not fully specified (residue 1); also: conjugate: hex-5-ynoyl peptide clicked to azide A18
B27: Compound 84 (peptide)
peptide: PDCAWHLGELVWCTP
modifications: residue 1 = (2S,4S)-4-aminoproline; residue 15 = D-Pro; backbone cyclised head to tail; disulfide Cys3-Cys13; 4-amino group of residue 1 acylated with the linker to the sugar ligands
B28: Intermediate 5 (peptide)
peptide: PDCAWHLGELVWCTP
modifications: residue 1 = (2S,4S)-4-aminoproline (free 4-amino group); residue 15 = D-Pro; backbone cyclised head to tail; disulfide Cys3-Cys13
B29: Intermediate 7 (peptide)
peptide: PDCAWHLGELVWCTP
modifications: residue 1 = (2S,4S)-4-aminoproline; residue 15 = D-Pro; backbone cyclised head to tail; disulfide Cys3-Cys13; 4-amino group of residue 1 acylated with 3-(2-(hex-5-ynamido)ethoxy)propanoyl
B30: Intermediate 9 (peptide)
peptide: cyclo(PDCAWHLGELVWCT[dP])
modifications: disulfide 3-13; not fully specified (residue 1)
B31: Intermediate 6 (peptide)
peptide: PDCAWHLGELVWCTP
modifications: residue 1 = (2S,4S)-4-aminoproline; residue 15 = D-Pro; backbone cyclised head to tail; disulfide Cys3-Cys13; 4-amino group of residue 1 acylated with PEG2-propanoyl capped by hex-5-ynamide
B32: Compound 52 (peptide)
peptide: cyclo(PDCAWHLGELVWCT[dP])
modifications: disulfide 3-13; not fully specified (residue 1); also: conjugate: hex-5-ynoyl peptide clicked to azide A2

What follows are binders tested against IgG (assay: SPR, IgG immobilised on CM5 chip, compound as analyte; value from the legend of the grade (**** = Kd <100 nM)).

Kd, < 100 nM:
B1
B2
B3
B4
B5
B6
B7
B8
B9
B10
B11
B12
B13
B14
B15
B16
B17
B18
B19
B20
B21
B22
B23
B24
B25
B26
B27

These binders were tested against IgG (assay: SPR, IgG immobilised on CM5 chip, compound as analyte; value from the legend of the grade (++++ = Kd <100 nM)).

Kd, < 100 nM:
B2
B5
B28
B29
B30
B31
B25
B32
B26
